According to patent US20240317847A1 (Bayer, published 2024):
Numbering of substitutions follows the chain as printed.

B1: TPP-29520 (antibody, mouse IgG1)
heavy: QVQLVESGGGVVQPGRSLRLSCAASGFTFSHYDMHWVRQAPGKGLEWVAVISYSGSVKFYADSVKGRFTISRDNSKNTLYLQMNSLRAEDTAVYYCARTPGSHFDYWGQGTLVTVSSAKTTPPSVYPLAPGSAAQTNSMVTLGCLVKGYFPEPVTVTWNSGSLSSGVHTFPAVLQSDLYTLSSSVTVPSSTWPSETVTCNVAHPASSTKVDKKIVPRDCGCKPCICTVPEVSSVFIFPPKPKDVLTITLTPKVTCVVVDISKDDPEVQFSWFVDDVEVHTAQTQPREEQFNSTFRSVSELPIMHQDWLNGKEFKCRVNSAAFPAPIEKTISKTKGRPKAPQVYTIPPPKEQMAKDKVSLTCMITDFFPEDITVEWQWNGQPAENYKNTQPIMDTDGSYFVYSKLNVQKSNWEAGNTFTCSVLHEGLHNHHTEKSLSHSPGK
light: QSVLTQPPSASGTPGQRVTISCSGSSSNIGSNYVNWYQQLPGTAPKLLIYYDDLRPSGVPDRFSGSKSGTSASLAISGLRSEDEADYYCSAWDDSLSGVVFGGGTKLTVLGQPKSSPSVTLFPPSSEELETNKATLVCTITDFYPGVVTVDWKVDGTPVTQGMETTQPSKQSNNKYMASSYLTLTARAWERHSSYSCQVTHEGHTVEKSLSRADCS
notes: mIgG1, Lambda
B2: TPP-29521 (antibody, mouse IgG1)
heavy: B1 heavy with S54E, V57N, S102F
light: B1 light with N35S
notes: mIgG1, Lambda
B3: TPP-29522 (antibody, mouse IgG1)
heavy: B1 heavy with S54E, V57N, S102F
light: B1 light
notes: mIgG1, Lambda
B4: TPP-23580 (antibody, mouse IgG1, kappa)
heavy: EVQLVQSGAEVKKPGASVKISCKASGYTFTDYNMDWVKQAPGQRLEWIGDINPHNGGPIYNQKFTGRATLTVDKSASTAYMELSSLRSEDTAVYYCARGELGHWYFDVWGQGTTVTVSSAKTTPPSVYPLAPGSAAQTNSMVTLGCLVKGYFPEPVTVTWNSGSLSSGVHTFPAVLQSDLYTLSSSVTVPSSTWPSETVTCNVAHPASSTKVDKKIVPRDCGCKPCICTVPEVSSVFIFPPKPKDVLTITLTPKVTCVVVDISKDDPEVQFSWFVDDVEVHTAQTQPREEQFNSTFRSVSELPIMHQDWLNGKEFKCRVNSAAFPAPIEKTISKTKGRPKAPQVYTIPPPKEQMAKDKVSLTCMITDFFPEDITVEWQWNGQPAENYKNTQPIMDTDGSYFVYSKLNVQKSNWEAGNTFTCSVLHEGLHNHHTEKSLSHSPGK
light: DIVLTQSPASLALSPGERATLSCRASKSVSTSGYSYIHWYQQKPGQPPRLLIYLASNLDSGVPARFSGSGSGTDFTLNIHPLEEEDFATYYCQHSRDLPPTFGQGTKLEIKRADAAPTVSIFPPSSEQLTSGGASVVCFLNNFYPKDINVKWKIDGSERQNGVLNSWTDQDSKDSTYSMSSTLTLTKDEYERHNSYTCEATHKTSTSPIVKSFNRNEC
notes: text calls it the mouse IgG1 version of the WO2019238882 antibody; also called BSN 3C6 2.2-2.1-mIgG1Kappa

target: T1, human IL-11 (human, UniProt P20809 22-199); assay: cell-based or functional assay
T1 sequence: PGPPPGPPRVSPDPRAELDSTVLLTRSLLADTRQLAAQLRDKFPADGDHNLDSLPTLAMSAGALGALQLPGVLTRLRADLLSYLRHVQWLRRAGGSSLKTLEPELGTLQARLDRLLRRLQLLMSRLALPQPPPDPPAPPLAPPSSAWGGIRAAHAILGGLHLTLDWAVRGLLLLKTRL

First: B1
Second: B2
The “RGA Efficacy (%)” value of the first is higher: 99.7% for the first, 99.2% for the second.

Compared with B3, B4 is lower in “RGA Efficacy (%)” value: 98.6% for the first, 64% for the second.

B1 and B2 are within 1.5-fold of each other in “RGA IC50” value: 1.7 nM for the first, 1.9 nM for the second.

For B3, the “RGA IC50” value was 1.6 nM.

target: T2, murine IL-11 (mouse, UniProt P47873 22-199); assay: cell-based or functional assay
T2 sequence: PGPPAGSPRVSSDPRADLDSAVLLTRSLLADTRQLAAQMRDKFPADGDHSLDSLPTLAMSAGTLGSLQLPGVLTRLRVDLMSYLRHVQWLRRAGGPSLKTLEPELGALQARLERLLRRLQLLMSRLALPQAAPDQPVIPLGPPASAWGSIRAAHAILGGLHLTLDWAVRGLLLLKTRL

First: B1
Second: B2
The “RGA Efficacy (%)” value of the first is lower: 100% for the first, 103% for the second.

Compared with B3, B4 is lower in “RGA Efficacy (%)” value: 101% for the first, 88.9% for the second.

B1 and B2 are within 1.5-fold of each other in “RGA IC50” value: 910 pM for the first, 760 pM for the second.

First: B3
Second: B4
The “RGA IC50” value of the first is 10-fold lower: 780 pM for the first, 7900 pM for the second.

target: T3, cynomolgus IL-11 (cynomolgus, UniProt P20808 22-199); assay: cell-based or functional assay
T3 sequence: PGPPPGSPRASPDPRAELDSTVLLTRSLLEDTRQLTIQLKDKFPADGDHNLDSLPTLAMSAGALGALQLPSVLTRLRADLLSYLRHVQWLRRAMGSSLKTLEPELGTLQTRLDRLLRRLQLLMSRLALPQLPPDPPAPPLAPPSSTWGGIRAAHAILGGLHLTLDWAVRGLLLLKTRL

Going from B1 to B2, the “RGA Efficacy (%)” value rises from 58.6% to 60%.

Going from B3 to B4, the “RGA Efficacy (%)” value falls from 52% to 21.9%.

target: T4, rat IL-11 (rat, UniProt Q99MF5 22-199); assay: cell-based or functional assay
T4 sequence: T2 sequence with S50N, L84F, G94A, V137A, I138V

Going from B1 to B2, the “RGA Efficacy (%)” value falls from 101% to 98.9%.

Going from B3 to B4, the “RGA Efficacy (%)” value falls from 101% to 62.2%.

B1 and B2 are within 1.5-fold of each other in “RGA IC50” value: 1.3 nM for the first, 1.8 nM for the second.

First: B3
Second: B4
The “RGA IC50” value of the first is 8.8-fold lower: 1.6 nM for the first, 14 nM for the second.

target: T1, human IL-11; assay: SPR 37 C, antibody captured, IL-11 as analyte
Method: (§1) To assess the binding kinetics and affinity of anti-IL-11 antibodies as well as their species cross-reactivity profile, binding assays were conducted using surface plasmon resonance (SPR). Binding assays were performed on a Biacore T200 instrument or on a Biacore 8K+ instrument (Cytiva) at 37° C. using assay buffer HBS EP+, 300 mM NaCl, 1 mg/ml BSA, 0.05% NaN3. Antibodies were captured either via anti-human Fc IgGs (“Human antibody capture kit”, Order No. BR100839, Cytiva) or via anti-mouse Fc IgGs (“Mouse antibody capture kit, Order No. BR100383, Cytiva) covalently amine coupled to a Series S CM5 sensor chip (Cytiva) depending on the isotype. The amine coupling was carried out according to the manufacturer's instructions using 1-ethyl-3-(3-dimethylaminopropyl) carbodiimide hydrochloride (EDC), N-hydroxysuccinimide (NHS) and ethanolamine HCl, pH 8.5 (“Amine Coupling Kit” BR-1000-50, Cytiva.). Human, mouse, cynomolgus or rat IL-11 was used as analyte at several dilutions within the concentration range from 0.05-200 nM. For binding assays with only one concentration 200 nM IL-11 was used. The sensor surface was regenerated with glycine pH 1.7 after each antigen injection. Obtained sensorgrams were double referenced (subtraction of reference flow cell signal and buffer injection) and were fitted to a 1:1 Langmuir binding model to derive kinetic data using the Biacore T200 Evaluation software or the Biacore Insight software. If no value is reported, there was either no binding or very low binding and multiphasic binding behavior. Values below 1E-12 were considered to be below the dynamic range of the instrument and set to <1E-12.

First: B1
Second: B2
The Kd of the first is 2-fold lower: 0.09 nM for the first, 0.18 nM for the second.

Compared with B3, B4 is 62-fold higher in Kd: 0.034 nM for the first, 2.1 nM for the second. The first binds more tightly here.

target: T2, murine IL-11; assay: SPR 37 C, antibody captured, IL-11 as analyte
Method: as §1

B1 and B2 are within 1.5-fold of each other in Kd: 0.11 nM for the first, 0.098 nM for the second.

First: B3
Second: B4
The Kd of the first is 83-fold lower: 0.029 nM for the first, 2.4 nM for the second. The first binds more tightly here.

target: T3, cynomolgus IL-11; assay: SPR 37 C, antibody captured, IL-11 as analyte
Method: as §1

B1: no binding (tested: IL-11 up to 200 nM).
B2: no binding (tested: IL-11 up to 200 nM).
B4: no binding (tested: IL-11 up to 200 nM).

B3 showed a Kd of 24 nM.

target: T4, rat IL-11; assay: SPR 37 C, antibody captured, IL-11 as analyte
Method: as §1

Compared with B1, B2 is 7.2-fold higher in Kd: 0.29 nM for the first, 2.1 nM for the second.

First: B3
Second: B4
The Kd of the first is 12-fold lower: 0.34 nM for the first, 4.1 nM for the second.

target: T1, human IL-11; assay: Di-complex ELISA, competitor canine IL11RA-Fc on coated IL-11;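 for Efficacy (%): signal drop relative to signal at lowest antibody concentration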
Method: (§2) The assay is performed using streptavidin coated microtiter plates (Greiner bio-one, #781997). In a first step, 10 nM biotinylated mouse IL-11 (Invigate, Germany, e.g., lot #C210819-09) or human IL-11 (Invigate, Germany, e.g., lot #C121021-19) is coated in 25 μl PBS on the plate at 4° C. overnight. Next day, the plate is washed three times with 50 μl PBST and then blocked with 50 μl SmartBlock (Candor, #113125) for one hour at room temperature (RT). After additional three washes with PBST, 25 μl of a mixture of the murine anti IL-11 antibody and recombinant canine IL11RA-Fc fusion protein (Sino Biological, #70078-D02H) in PBS-T, 10% Smartblock are added simultaneously to the plate and incubated for one hour at RT. […] After three additional washes with PBS-T, 25 μl anti-human-POD (Sigma, #A0170) in PBS-T, 10% Smartblock is added and incubated for 1 hour at RT. After a final three washes with PBS-T, 25 μl AmplexRed (Fisher Scientific, A12222), 1/1000 in PBS, 0,003% H₂O₂, is added as substrate and incubated for 15 min at RT in the dark. Then, the fluorescence is measured with a plate reader at 535/595 nm. Signals from dose responses were used to calculate IC50 values (GraphPad Prism). Efficacy was calculated as [(signal measured at lowest antibody concentration−signal measured at the highest antibody concentration)×100] divided by (signal measured at lowest antibody concentration−signal measured in the absence of IL11Ra).
(§3) IgG converted antibodies were subjected to the experimental assay procedure described in Example 18.

Going from B1 to B2, the “Efficacy (%)” value rises from 0.3% to 1.7%.

Going from B3 to B4, the “Efficacy (%)” value rises from 0% to 93.3%.

With B4 the IC50 was 10 nM.

target: T2, murine IL-11; assay: as above
Method: as §2, §3

Going from B1 to B2, the “Efficacy (%)” value rises from 1.1% to 12.1%.

Going from B3 to B4, the “Efficacy (%)” value rises from 3.6% to 93%.

For B4, the IC50 was 6.8 nM.
